# Measurements taken from US20170152290A1 (CENTRO DE INGENIERIA GEN TICA Y BIOTECHNOLOGIA, published 2017).
# Substitutions are numbered along the chain they refer to.
# B1: Receptor-Associated Protein (RAP) (ligand, UniProt P30533 35-357, looked up)
# chain: YSREKNQPKPSPKRESGEEFRMEKLNQLWEKAQRLHLPPVRLAELHADLKIQERDELAWKKLKLDGLDEDGEKEARLIRNLNVILAKYGLDGKKDARQVTSNSLSGTQEDGLDDPRLEKLWHKAKTSGKFSGEELDKLWREFLHHKEKVHEYNVLLETLSRTEEIHENVISPSDLSDIKGSVLHSRHTELKEKLRSINQGLDRLRRVSHQGYSTEAEFEEPRVIDLWDLAQSANLTDKELEAFREELKHFEAKIEKHNHYQKQLEIAHEKLRHAESVGDGERVSRSREKHALLEGRTKELGYTVKKHLQDLSGRISRARHNEL
# B2: DIIIE1PRS alanine mutant, variant E375 (other)
# chain: MDKLTLKGMSYVMCTGSFKLEKEVAETQHGTVLVQVKYEGTDAPCKIPFSTQDEKGVTQNGRLITANPIVTDKEKPVNIETEPPFGASYIVVGAGEKALKLSWFKKGSSIGVDHHHHHH
# notes: also called Glu375 to Ala
# B3: DIIIE1PRS alanine mutant, variant R350 (other)
# chain: B2 chain with R62A, A87E
# notes: also called Arg350 to Ala
# B4: DIIIE1PRS alanine mutant, variant T346 (other)
# chain: B2 chain with T58A, A87E
# B5: DIIIE1PRS alanine mutant, variant E362 (other)
# chain: B2 chain with E74A, A87E
# B6: DIIIE1PRS alanine mutant, variant V365 (other)
# chain: B2 chain with V77A, A87E
# notes: also called Val365 to Ala
# B7: DIIIE1PRS alanine mutant, variant N366 (other)
# chain: B2 chain with N78A, A87E
# notes: also called Asn366 to Ala
# B8: DIIIE1PRS alanine mutant, variant E342 (other)
# chain: B2 chain with E54A, A87E
# notes: also called Glu342 to Ala
# B9: DIIIE1PRS alanine mutant, variant K385 (other)
# chain: B2 chain with A87E, K97A
# notes: also called Lys385 to Ala
# B10: DIIIE1PRS alanine mutant, variant K363 (other)
# chain: B2 chain with K75A, A87E
# notes: also called Lys363 to Ala
# B11: DIIIE1PRS alanine mutant, variant G374 (other)
# chain: B2 chain with G86A, A87E
# notes: also called Gly374 to Ala
# B12: DIIIE1PRS alanine mutant, variant P364 (other)
# chain: B2 chain with P76A, A87E
# B13: DIIIE1PRS alanine mutant, variant K361 (other)
# chain: B2 chain with K73A, A87E
# notes: also called Lys361 to Ala
# B14: DIIIE1PRS alanine mutant, variant P372 (other)
# chain: B2 chain with P84A, A87E
# notes: also called Pro372 to Ala
# Molecular target: recombinant Human Serum Albumin (rHSA) (human, UniProt P02768 25-609)
# Test: SPR (Biacore X), CM5 chip, sLRP1-CIV immobilised on Fc1 and rHSA on Fc2, analyte at 100 nM
row,Binder,binding result
1,B1,no binding (tested: 100 nM)

# Molecular target: T1, activated human alfa-2-macroglobulin (α2M_MeNH2) (human, UniProt P01023 24-1474)
# T1 construct: mature
# T1 sequence (looked up): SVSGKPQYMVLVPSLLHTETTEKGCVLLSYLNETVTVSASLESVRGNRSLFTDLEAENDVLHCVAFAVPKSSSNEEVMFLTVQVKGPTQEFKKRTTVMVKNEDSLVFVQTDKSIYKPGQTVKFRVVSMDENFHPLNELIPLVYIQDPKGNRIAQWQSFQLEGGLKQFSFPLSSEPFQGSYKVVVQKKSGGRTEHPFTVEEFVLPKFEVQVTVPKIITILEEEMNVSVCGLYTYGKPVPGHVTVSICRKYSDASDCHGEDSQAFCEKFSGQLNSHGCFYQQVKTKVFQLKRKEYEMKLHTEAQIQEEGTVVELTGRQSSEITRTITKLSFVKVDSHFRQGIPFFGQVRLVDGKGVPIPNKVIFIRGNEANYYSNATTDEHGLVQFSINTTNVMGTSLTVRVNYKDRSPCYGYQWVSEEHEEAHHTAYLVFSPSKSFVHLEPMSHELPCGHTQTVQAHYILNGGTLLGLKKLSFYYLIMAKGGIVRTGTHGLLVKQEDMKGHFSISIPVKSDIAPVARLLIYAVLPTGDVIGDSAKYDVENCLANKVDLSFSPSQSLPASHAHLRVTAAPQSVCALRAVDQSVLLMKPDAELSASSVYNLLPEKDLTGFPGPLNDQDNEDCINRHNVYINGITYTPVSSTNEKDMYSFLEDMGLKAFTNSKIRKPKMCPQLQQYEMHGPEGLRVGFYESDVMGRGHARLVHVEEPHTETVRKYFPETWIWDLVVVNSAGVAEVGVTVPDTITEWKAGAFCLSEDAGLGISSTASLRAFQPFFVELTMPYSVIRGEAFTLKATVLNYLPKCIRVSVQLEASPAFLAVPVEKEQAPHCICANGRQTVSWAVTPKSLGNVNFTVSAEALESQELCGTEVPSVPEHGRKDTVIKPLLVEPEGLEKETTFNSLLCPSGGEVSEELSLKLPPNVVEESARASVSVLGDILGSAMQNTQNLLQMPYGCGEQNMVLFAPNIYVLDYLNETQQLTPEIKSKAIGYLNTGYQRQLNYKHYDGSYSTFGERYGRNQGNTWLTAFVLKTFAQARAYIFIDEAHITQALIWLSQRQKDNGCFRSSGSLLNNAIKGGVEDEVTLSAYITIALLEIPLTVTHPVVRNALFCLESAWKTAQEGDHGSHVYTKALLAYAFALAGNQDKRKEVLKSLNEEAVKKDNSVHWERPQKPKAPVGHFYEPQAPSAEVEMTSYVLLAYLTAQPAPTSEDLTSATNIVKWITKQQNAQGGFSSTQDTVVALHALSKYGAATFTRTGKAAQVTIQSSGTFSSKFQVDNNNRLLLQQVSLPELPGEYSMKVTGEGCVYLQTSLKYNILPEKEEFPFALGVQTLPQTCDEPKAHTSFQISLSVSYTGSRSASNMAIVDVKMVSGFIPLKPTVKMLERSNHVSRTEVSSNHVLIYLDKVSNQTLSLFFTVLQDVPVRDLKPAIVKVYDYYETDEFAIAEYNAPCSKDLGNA
# Test: competition ELISA, α2M* coated, DIIIE1PRSbiot as labelled ligand
Binder,fold increase of IC50 against wild-type DIIIE1PRS [fold],fold reduction of affinity against wild-type DIIIE1PRS [fold]
B2,≥ 2,
B3,≥ 2,
B4,≥ 2,
B5,> 10,
B6,> 10,
B7,≥ 2,
B8,≥ 2,
B9,> 10,> 22
B10,≥ 2,
B11,≥ 2,
B12,> 10,
B13,> 10,
B14,≥ 2,
